The text below walks through data of US20120220492A1.

The target of one assay is antibody against CD29. The assay can be described thus: cell-based or functional assay.
In another assay the target is antibody against c-kit. Briefly: cell-based or functional assay.

In the assay with antibody against CD29 (scale: times higher than virus with a wildtype capsid), “AAV mosaic composed of 25% mutant capsid proteins with a Protein A fragment (Z34C) insertion at position 587 (from UniProt P03135 1-735; P03135 139-735; P03135 203-735; P03135 139-735; P03135 203-735)” showed an infectious titers on Jurkat cells (GFP positive cells by FACS) of 2 to 3. This substance also displayed a transduction efficiency on MO7E cells in the assay with antibody against c-kit of 10 fold. Besides, the transduction efficiency on MO7E cells (fold higher than wildtype) in the assay with antibody against c-kit was determined as 100. Also, the transgene expression with antibody against c-kit (scale: fold higher than virus with wildtype capsid) is 100; with antibody against c-kit (scale: times higher than virus with wildtype capsid), 100000.
Turning to “AAV mosaic composed of 50% mutant capsid proteins with a Protein A fragment (Z34C) insertion at position 587 (from UniProt P03135 1-735; P03135 139-735; P03135 203-735; P03135 139-735; P03135 203-735)”, in the assay with antibody against CD29, the infectivity on Jurkat cells (fold lower than the 25% virus) was 2. Further, the infectivity on MO7E cells (fold lower than the 25% virus) with antibody against c-kit was 3.
